Laboratory results: PMC9963377

Molecular target: tetrameric CDV attachment protein H-ectodomain (strain A75/17), with N-terminal tetrameric GCN4 motif (canine distemper virus (strain A75/17))
Assay: cryo-EM structure

With “tetrameric CDV attachment protein H-ectodomain (strain A75/17), with N-terminal tetrameric GCN4 motif (domain or fragment)” the stoichiometry N was 4.
